B1: mAb T2 (antibody, human IgG1, kappa, V domains shown)
VH: EVQLVESGGGLVQPGGSLRLSCAASGFTFTDYTMDWVRQAPGKGLEWVADVNPNSGGSIYNQRFKGRFTLSVDRSKNTLYLQMNSLRAEDTAVYYCARNLGPSFYFDYWGQGTLVTVSS
VL: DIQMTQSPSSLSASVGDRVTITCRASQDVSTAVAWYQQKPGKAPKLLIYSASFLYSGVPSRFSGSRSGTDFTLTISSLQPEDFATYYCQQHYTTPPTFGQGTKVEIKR
notes: Pertuzumab heavy chain with a mutated trastuzumab light chain
B2: mAb T43 (antibody, V domains shown)
VH: EVQLVESGGGLVQPGGSLRLSCAASGFTFADYTMDWVRQAPGKGLEWVADVNPNSGASIYNQRFKGRFTLSVDRSKNTLYLQMNSLRAEDTAVYYCARNLGPSFYFDYWGQGTLVTVSS
VL: DIQMTQSPSSLSASVGDRVTITCRASQDVSTAVAWYQQKPGKAPKLLIYSASFLYYGVPSRFSGSRSGTDFTLTISSLQPEDFATYYCQQHYTWPPTFGQGTKVEIKR
B3: mAb T4 (antibody, human IgG1, kappa, V domains shown)
VH: EVQLVESGGGLVQPGGSLRLSCAASGFTFTDYTMDWVRQAPGKGLEWVADVNPNSGGSIYNQRFKGRFTLSVDRSKNTLYLQMNSLRAEDTAVYYCARNLGPSFYFDYWGQGTLVTVSS
VL: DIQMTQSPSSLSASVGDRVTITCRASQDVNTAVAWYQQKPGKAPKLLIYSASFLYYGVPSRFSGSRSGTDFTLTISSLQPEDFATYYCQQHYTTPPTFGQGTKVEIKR
notes: as for B1
B4: mAb T7 (antibody, human IgG1, kappa, V domains shown)
VH: EVQLVESGGGLVQPGGSLRLSCAASGFTFTDYTMDWVRQAPGKGLEWVADVNPNSGGSIYNQRFKGRFTLSVDRSKNTLYLQMNSLRAEDTAVYYCARNLGPSFYFDYWGQGTLVTVSS
VL: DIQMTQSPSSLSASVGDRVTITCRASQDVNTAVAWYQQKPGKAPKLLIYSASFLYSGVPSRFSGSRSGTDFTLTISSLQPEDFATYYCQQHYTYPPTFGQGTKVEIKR
notes: as for B1
B5: mAb T26 (antibody, V domains shown)
VH: EVQLVESGGGLVQPGGSLRLSCAASGFTFADYTMDWVRQAPGKGLEWVADVNPNSGASIYNQRFKGRFTLSVDRSKNTLYLQMNSLRAEDTAVYYCARNLGPSFYFDYWGQGTLVTVSS
VL: DIQMTQSPSSLSASVGDRVTITCKASQDVSIGVAWYQQKPGKAPKLLIYSASYRYTGVPSRFSGSGSGTDFTLTISSLQPEDFATYYCQQYYIYPYTFGQGTKVEIKR
B6: mAb T9 (antibody, human IgG1, kappa, V domains shown)
VH: EVQLVESGGGLVQPGGSLRLSCAASGFTFTDYTMDWVRQAPGKGLEWVADVNPNSGGSIYNQRFKGRFTLSVDRSKNTLYLQMNSLRAEDTAVYYCARNLGPSFYFDYWGQGTLVTVSS
VL: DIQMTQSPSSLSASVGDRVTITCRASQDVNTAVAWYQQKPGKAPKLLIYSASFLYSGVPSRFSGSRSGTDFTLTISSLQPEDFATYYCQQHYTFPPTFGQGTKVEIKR
notes: as for B1
B7: mAb T10 (antibody, human IgG1, kappa, V domains shown)
VH: EVQLVESGGGLVQPGGSLRLSCAASGFTFTDYTMDWVRQAPGKGLEWVADVNPNSGGSIYNQRFKGRFTLSVDRSKNTLYLQMNSLRAEDTAVYYCARNLGPSFYFDYWGQGTLVTVSS
VL: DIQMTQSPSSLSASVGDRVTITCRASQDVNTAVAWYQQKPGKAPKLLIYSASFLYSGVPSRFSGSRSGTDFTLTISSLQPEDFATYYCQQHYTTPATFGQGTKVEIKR
notes: as for B1
B8: mAb T3 (antibody, human IgG1, kappa, V domains shown)
VH: EVQLVESGGGLVQPGGSLRLSCAASGFTFTDYTMDWVRQAPGKGLEWVADVNPNSGGSIYNQRFKGRFTLSVDRSKNTLYLQMNSLRAEDTAVYYCARNLGPSFYFDYWGQGTLVTVSS
VL: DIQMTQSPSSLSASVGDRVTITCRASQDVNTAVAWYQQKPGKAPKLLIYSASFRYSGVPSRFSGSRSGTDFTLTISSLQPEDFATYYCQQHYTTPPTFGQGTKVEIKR
notes: as for B1
B9: mAb T5 (antibody, human IgG1, kappa, V domains shown)
VH: EVQLVESGGGLVQPGGSLRLSCAASGFTFTDYTMDWVRQAPGKGLEWVADVNPNSGGSIYNQRFKGRFTLSVDRSKNTLYLQMNSLRAEDTAVYYCARNLGPSFYFDYWGQGTLVTVSS
VL: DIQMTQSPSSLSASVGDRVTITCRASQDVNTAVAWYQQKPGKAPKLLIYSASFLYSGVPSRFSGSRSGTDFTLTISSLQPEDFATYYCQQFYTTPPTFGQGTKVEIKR
notes: as for B1
B10: mAb T25 (antibody, V domains shown)
VH: EVQLVESGGGLVQPGGSLRLSCAASGFTFTDYTMDWVRQAPGKGLEWVADVNPNSGASIYNQRFKGRFTLSVDRSKNTLYLQMNSLRAEDTAVYYCARNLGPSFYFDYWGQGTLVTVSS
VL: DIQMTQSPSSLSASVGDRVTITCKASQDVSIGVAWYQQKPGKAPKLLIYSASYRYTGVPSRFSGSGSGTDFTLTISSLQPEDFATYYCQQYYIYPYTFGQGTKVEIKR
notes: Residue 56 counted along the entry is also G
B11: mAb T8 (antibody, human IgG1, kappa, V domains shown)
VH: EVQLVESGGGLVQPGGSLRLSCAASGFTFTDYTMDWVRQAPGKGLEWVADVNPNSGGSIYNQRFKGRFTLSVDRSKNTLYLQMNSLRAEDTAVYYCARNLGPSFYFDYWGQGTLVTVSS
VL: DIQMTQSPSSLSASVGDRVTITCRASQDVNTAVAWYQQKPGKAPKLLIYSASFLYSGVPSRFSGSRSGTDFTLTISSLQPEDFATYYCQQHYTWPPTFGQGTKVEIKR
notes: as for B1
B12: mAb T12 (antibody, V domains shown)
VH: not shown
VL: DIQMTQSPSSLSASVGDRVTITCKASQDVSIGVAWYQQKPGKAPKLLIYSASYRYTGVPSRFSGSGSGTDFTLTISSLQPEDFATYYCQQYYIYPYTFGQGTKVEIKR

molecular target: T1, HER2 extracellular domain (human, UniProt P04626 23-652); assay: ELISA, HER2 ECD coated on plate
T1 construct: extracellular domain; also called ErbB2; HER2 ECD
Protocol: (§1) The binding potency of antibodies to the antigen HER2 was determined using an ELISA assay. The HER2 extracellular domain was coated overnight on 96-well plates by adding 0.2 ug/100 ul/well of HER2 extracellular domain solution. The plates were washed 6 times with PBS, and blocked with 3% BSA and incubated for 2 hours. The plates were again washed 6 times with PBS. After 1 hour of binding, the plates were washed 6 times with PBS. Horse radish peroxidase (HRP) conjugated secondary antibody was added and incubated for 1 hr. HRP substrate TMB was added to each well and luminescence was read on plate reader. The data were then fitted into 4-parameter sigmoidal curve to generate IC50. Each sample was run in triplicate.

Binding result, binds:
B1
B2
B3
B4
B5
B6
B7
B8
B9
B10
B11

molecular target: T1, HER2 extracellular domain; assay: ELISA, HER2 ECD coated on plate; T12 is the weaker comparator
Protocol: as §1

Binding result, binds:
B12

— patent US20200140568A1 (XUANZHU BIOPHARMACEUTICAL, published 2020)
